In article PMC12101271 (Antibodies, 2025):

Target: T1, hemagglutinin (HA) of influenza A/H1N1, in viral protein preparations (Influenza A virus (H1N1); …, UniProt C3W5X2)
T1 construct: source: viral protein preparations from A/H1N1
Assay: ELISA

B1: VHH 2-C10 (VHH)
VHH: QVQLQESGGGLVQAGGSLRLSCVASGRTFSSYSMAWFRQAPGKEREFVASISWSDINGYYPDSVKGRFTISRDNAKNTVYLQMNSLKPEDTAVYYCAARLGLSNYHYHRVSDYDVWGQGTQVTVSS
notes: also called native VHH 2-C10; source: E. coli TOP10F', culture medium, purified (Ni-NTA agarose)
  binding result: binds
